Residue numbers refer to the chain shown, from its start.

The labels stand for the following.
B1: M01 (antibody, V domains shown)
VH: QLQLQESGPGLVKPSETLSLTCTVSGGSISSSAYYWAWIRQPPGKGLEWIGSIYLSGSTTYNPSLKSRVTISVDTSKNQFSLKLSSVTAADTAVYYCARDGRYQSRSPDYYYGMDVWGQGTTVTVSS
VL: EIVLTQSPGTLSLSPGERATLSCRASQSVSDNYLAWYQQKPGQAPRLLIYGASNIATGIPDRFSGSGSGTDFTLTISRLEPEDFAVYYCASVFSYPFTFGGGTKVEIK
notes: Kappa light chain is implied by the anti-kappa reagent and KappaSelect; In SPR the antibody was captured on a custom FAB chip; also called ALK7 mAb M01
B2: N02 (antibody, V domains shown)
VH: B1 VH
VL: B1 VL with D31S, N32S, N54S, I55T, T57Y, A90Q, S91Q, V92L, F93V, S94A
B3: P03 (antibody, V domains shown)
VH: QVQLVQSGAEVKKPGASVKVSCKASGYTFAGYNMHWVRQAPGQGLEWVGIINPNSGWTNYAQKFQGRVTMTRDTSVSAAYMELSRLRSDDTAVYYCARDPVGARYEVFDYWGQGTLVTVSS
VL: EIVMTQSPATLSVSPGERATLSCQASQSVSSNLAWYQQKPGQAPRLLIYGASTIATGIPARFSGSGSGTEFTLTISSLQSEDFAVYYCQQAYAFPLTFGGGTKVEIK
B4: Q04 (antibody, V domains shown)
VH: B3 VH
VL: B3 VL with Q24K, I54R, Y92V, A93K

The target in this assay is T1, human ALK7-EK-Fc comprising protein (human, UniProt Q8NER5 22-113).
T1 construct: also called ALK7-Fc comprising protein; Human ALK7-Fc comprising protein; not shown: 'EK' segment between ALK7 and Fc; Fc portion
T1 sequence: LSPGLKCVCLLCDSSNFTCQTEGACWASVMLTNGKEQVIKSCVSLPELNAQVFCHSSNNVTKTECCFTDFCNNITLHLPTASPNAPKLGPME
Briefly: SPR (Biacore T100/T200), antibody captured on FAB chip, ALK7-Fc protein as analyte, 1:1 model. As to the method:
Experiments were performed using a Biacore T100/T200 biosensor (Biacore/GE Healthcare) at 25 and 37° C. ALK7 antibodies were captured on custom made FAB chip. A concentration series of ALK7-Fc comprising protein was injected over the flow cells at a flow rate of […]. To obtain kinetic rate constants the corrected data were fit to a 1:1 interaction model using BiaEvaluation software (GE Healthcare). The equilibrium binding constant KD was determined by the ratio of binding rate constants kd/ka.
(In general: SPR reads the build-up and loss of mass on a sensor chip optically.)
What is called Kd is the concentration at which binding is half-saturated. What is called koff is the rate constant with which the complex falls apart. A lower koff goes with a long-lived complex. The term kon denotes a measure of how fast the partners come together. A low value points to slower complex formation. Molecule B1 returned an equilibrium dissociation constant (Kd) of 1000 pM, an off-rate constant (koff) of 4.32e-05 s⁻¹ and a kon of 43100 M⁻¹ s⁻¹.

Take B2: the dissociation constant Kd was found to be 870 pM, the koff worked out at 5.2e-05 s⁻¹ and the on-rate constant (kon) was 59800 M⁻¹ s⁻¹.

B3 showed a dissociation constant Kd of 390 pM, a koff of 1.43e-05 s⁻¹ and a kon of 36600 M⁻¹ s⁻¹.

Consider B4, for which the Kd was found to be 1420 pM, the koff is 4.7e-05 s⁻¹ and the kon is 33100 M⁻¹ s⁻¹.

Source of the values: patent publication US20220348685A1 (ACCELERON PHARMA, published 2022).
